± gives the half width of the 95% confidence interval.
Assays:
[1] = folding stability dG unfold from chymotrypsin proteolysis; higher = more stable
Procedure, shortened: (§1)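 Unfolding free energy was derived, per protease or combined, against a sequence-predicted unfolded-state K50 and a shared folded-state K50, starting from K50 inferred by Bayesian fitting of sequencing counts. Digestion with trypsin and chymotrypsin was carried out on designed mini-proteins under 80 residues without cysteine in a PA-tagged cDNA display construct. Only designs with AlphaFold2 dimer inter-PAE above 15 were kept.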

[2] = folding stability dG unfold (combined trypsin and chymotrypsin); higher = more stable
Procedure, shortened: as §1

[3] = folding stability dG unfold from trypsin proteolysis; higher = more stable
Procedure, shortened: as §1

Sequence: SMVTSETRETVTVTLPDGTVVTVTVTTHRPADGVPTATVTVTTTSADGTPTTSTHTFPAAEAPALIAAALSA [r9_189_JUSTAS]
- folding stability dG unfold [1]: 1.96 ± 0.044 kcal/mol
- folding stability dG unfold [2]: 2.35 ± 0.086 kcal/mol
- folding stability dG unfold [3]: 2.84 ± 0.13 kcal/mol

Sequence: SMVTVEEYEEDDEYYVKVYDPEKGVGVVFKTKDGVFKMPVTDPEALKEAIKASGIDVEIVEVRPLGPGLVSA [r9_1102_JUSTAS]
- folding stability dG unfold [1]: 0.581 ± 0.1 kcal/mol
- folding stability dG unfold [2]: 0.492 ± 0.083 kcal/mol
- folding stability dG unfold [3]: 0.357 ± 0.036 kcal/mol

Sequence: SMVVERDPDGVLRVYASPEEAERIVAELKAAGLDARVEAFDPETGVWVIPVRPVPPAGLEPTPENQALNRVS [r1_78_JUSTAS]
- folding stability dG unfold [1]: 1.23 ± 0.073 kcal/mol
- folding stability dG unfold [2]: 0.962 ± 0.071 kcal/mol
- folding stability dG unfold [3]: 0.502 ± 0.029 kcal/mol

Sequence: SMVVIEFETKKPKEQAEKAVEKAKKEIPELEEVLEIEVEEFPDFLKVKIVLKGGKITPEDLEKLKEFLEKSA [r9_195_TrMRF]
- folding stability dG unfold [1]: 2.4 ± 0.071 kcal/mol
- folding stability dG unfold [2]: 2.63 ± 0.27 kcal/mol
- folding stability dG unfold [3]: 2.67 ± 0.27 kcal/mol

Sequence: SMVVVKVTASSPEEAEALAKEAEEKLKEEIEKKIKELKKKGINPKELNLNIKIEIETLSYDPANPGKNTPSA [r9_961_JUSTAS]
- folding stability dG unfold [1]: 0.998 ± 0.066 kcal/mol
- folding stability dG unfold [2]: 0.827 ± 0.13 kcal/mol
- folding stability dG unfold [3]: 0.484 ± 0.039 kcal/mol

Sequence: SMYDIVITVPSPEDVKALEEAFKELGVEEIEVERLPEERYRIVIKTKGSVEEIVEAIRKIAEENGLEIEPSA [r9_1003_TrMRF]
- folding stability dG unfold [1]: 3.89 ± 0.19 kcal/mol
- folding stability dG unfold [2]: 3.75 ± 0.19 kcal/mol
- folding stability dG unfold [3]: 3.36 ± 0.18 kcal/mol

Sequence: SMYRIRLPSNKVFTIDVPPDGTVEITLPNGKKLTLKLESEEDILALAEILSKLFPDDPAEIEPIPLEYYRSA [r9_1206_TrMRF]
- folding stability dG unfold [1]: 1.53 ± 0.19 kcal/mol
- folding stability dG unfold [2]: 1.4 ± 0.092 kcal/mol
- folding stability dG unfold [3]: 1.24 ± 0.042 kcal/mol

Sequence: SMYRIRVKIKIKNPKTGKVIELPELEGMSLEEVLEIAKELKEKFPGAEVEVEIVEVEPLPPLTEEQLKKLSA [r9_421_TrROS_Hall]
- folding stability dG unfold [1]: 2.33 ± 0.083 kcal/mol
- folding stability dG unfold [2]: 2.11 ± 0.073 kcal/mol
- folding stability dG unfold [3]: 1.91 ± 0.069 kcal/mol

Sequence: SMYTADFILPDEVLKTVPLEGKSVEEALEKVKEIVKQLPPNTPLLVKISYTEVDPKTGTTRTGTITVPLKSA [r9_245_JUSTAS]
- folding stability dG unfold [1]: 2.39 ± 0.044 kcal/mol
- folding stability dG unfold [2]: 2.2 ± 0.19 kcal/mol
- folding stability dG unfold [3]: 2.06 ± 0.065 kcal/mol

Sequence: SMYYYGKFTFTNPTGGPTIGDVYIITKSKEEAEALAKEEASKKNVKVEIEIKEIPESEYENPEKVKELLSSA [r9_864_JUSTAS]
- folding stability dG unfold [1]: 1.02 ± 0.19 kcal/mol
- folding stability dG unfold [2]: 0.788 ± 0.37 kcal/mol
- folding stability dG unfold [3]: 0.285 ± 0.2 kcal/mol

Sequence: SNIKNIKRVEIYYNPENGWMPKIKVEYPGGEREFMFPPDQAEELLNWLQQKGLPMKITDVEYHPMPPDQMSA [r9_607_TrROS]
- folding stability dG unfold [1]: 1.49 ± 0.048 kcal/mol
- folding stability dG unfold [2]: 1.27 ± 0.18 kcal/mol
- folding stability dG unfold [3]: 0.911 ± 0.086 kcal/mol

Sequence: SNPENIDKITFTFRWPDGNPMEIEIDPDGTVEYEYPNGWEIEITIDPDDGKLTIEMTFPNGRPQEQKIPISA [r9_99_TrROS]
- folding stability dG unfold [1]: 2.85 ± 0.097 kcal/mol
- folding stability dG unfold [2]: 2.94 ± 0.38 kcal/mol
- folding stability dG unfold [3]: 1.86 ± 0.12 kcal/mol

Sequence: SNYINEPIYVPPSVDPEEVKKKVEERVEEIKKKLGLPPNISVSVTPVALPEGSVTYRVTVTVDGETYNSSSA [r9_776_JUSTAS]
- folding stability dG unfold [1]: 0.488 ± 0.17 kcal/mol
- folding stability dG unfold [2]: 0.683 ± 0.15 kcal/mol
- folding stability dG unfold [3]: 0.77 ± 0.1 kcal/mol

Sequence: SPAAELARRLFEELGLEAELVSVDPERRRVTFRVRHPDRAPLLLEVVYDPERPVFAIALNPETGRAVVPVSA [r9_1119_TrMRF]
- folding stability dG unfold [1]: 3.11 ± 0.036 kcal/mol
- folding stability dG unfold [2]: 2.73 ± 0.1 kcal/mol
- folding stability dG unfold [3]: 1.8 ± 0.039 kcal/mol

Sequence: SPDIEIEPMPNGSYMIEVPVPPDAESIEVPFPGNGRPVTIHRDPDKIHIFFNNPEQIEEIAEAIADGKPISA [r9_515_TrROS]
- folding stability dG unfold [1]: 0.2 ± 0.21 kcal/mol
- folding stability dG unfold [2]: 0.15 ± 0.15 kcal/mol
- folding stability dG unfold [3]: 0.0692 ± 0.047 kcal/mol

Sequence: SPESIEVQISKSSSTSPSGGSEEIYTVTVTYPATGKTLTKNFTATLNPDGTTNPNGSPEELAAKLAAELLAS [r1_77_JUSTAS]
- folding stability dG unfold [1]: 2.23 ± 0.026 kcal/mol
- folding stability dG unfold [2]: 2 ± 0.1 kcal/mol
- folding stability dG unfold [3]: 1.37 ± 0.079 kcal/mol

Sequence: SPKIHIFIKGSIEEAVDFIRKFFPGLPIHVFDDPEQAEERAKNGDIVIAIGDEEYANRYAKKYNVPVIYISA [r9_380_TrROS]
- folding stability dG unfold [1]: 3.338 ± 0.018 kcal/mol
- folding stability dG unfold [2]: 3.12 ± 0.053 kcal/mol
- folding stability dG unfold [3]: 2.52 ± 0.062 kcal/mol

Sequence: SPKITIDVETNKNGRGYIRFKFNGREREIRIPSNMTPEGAKEKARDIANTLQKRYQENGRPLKIEEIEIYSA [r9_751_TrROS]
- folding stability dG unfold [1]: 1.47 ± 0.13 kcal/mol
- folding stability dG unfold [2]: 1.36 ± 0.17 kcal/mol
- folding stability dG unfold [3]: 1.49 ± 0.089 kcal/mol

Reference: the supplement of paper PMC12764529
